What is called Kd is a measure of binding affinity in units of concentration. A lower Kd goes with tighter binding.

The results in this text go back to article PMC8843702 (The Journal of Clinical Investigation, 2022).

One experiment concerns the target SARS-CoV-2 S protein (SARS-CoV-2, Wuhan-Hu-1 reference, UniProt P0DTC2). Description: SPR. The note with it: both partners purified.
In the next experiment the target is SARS-CoV-1 S protein (SARS-CoV-1, strain not named (P59594 …, UniProt P59594)). The experiment can be described thus: SPR. The note with it: both partners purified.

B1: P14-44 (antibody, V domains shown)
VH: QVQLVQSGAEVKKPGASVKVSCKASGYIFTSYSMHWVRQAPGQGLEWMGTIKPSDDSTNYAQKFQGRVSMTRDTSTSTVYMELSSLRYEDTAVYYCAREARGYYDRSGYYHPGYFDYWGQGTLVTVSS
VL: QSVLTQPASVSGSPGQSITISCTGTSSDVGGYNFVSWYQQHPGKAPKLMIYEVSDRPSGVSSRFSGSKSGNTASLTISGLQAEDEADYYCFSYTTSTTWVFGGGTKLTVL
notes: also called P14-44 IgG; source: HEK293F, transfected, purified (Protein A)
As to B1, the Kd in the experiment with SARS-CoV-2 S protein amounted to 0.55 nM; with SARS-CoV-1 S protein, 4.3 nM.
